Source: publication PMC5089960 (Angewandte Chemie (International ed. in English), 2016)

Molecular target: the molecule itself
Experiment: crystal structure

B1: PsoE (enzyme, A. fumigatus)
chain: MVFGTLYTFPGDQCRTIAIKAVAKANGLDLDIRETPRTPDHLSISKLGKVPAFQGADSFKLFECMAIALYITSQNEQTTLLGKDKKEYAEIIKWMSFFNTEIVILMTQQLLPQLGVIPYDRDQVEFFANMTQRSVDVVEEYLQDRTFLVGDQLSLADLFCAGNISLGFQFFYGKAWRQQNPNVSRWYEMVCHQPIYAAVTDKFQLLDEPKLTNNPPEKKPETVPKNGAAVAIEATQA
- stoichiometry N: 2
